Test results published in patent US9976134B2, “Thermolysin variants” (Danisco US Inc., priority 2007, dated 2018).

B1: Q273A: single-substitution thermolysin variant (SEQ ID NO:3 numbering) (protein, listed as Geobacillus caldoproteolyticus)
chain: ITGTSTVGVGRGVLGDQKNINTTYSTYYYLQDNTRGNGIFTYDAKYRTTLPGSLWADADNQFFASYDAPAVDAHYYAGVTYDYYKNVHNRLSYDGNNAAIRSSVHYSQGYNNAFWNGSQMVYGDGDGQTFIPLSGGIDVVAHELTHAVTDYTAGLIYQNESGAINEAISDIFGTLVEFYANKNPDWEIGEDVYTPGISGDSLRSMSDPAKYGDPDHYSKRYTGTQDNGGVHINSGIINKAAYLISQGGTHYGVSVVGIGRDKLGKIFYRALTAYLTPTSNFSQLRAAAVQSATDLYGSTSQEVASVKQAFDAVGVK
B2: T278N: single-substitution thermolysin variant (SEQ ID NO:3 numbering) (protein, listed as Geobacillus caldoproteolyticus)
chain: ITGTSTVGVGRGVLGDQKNINTTYSTYYYLQDNTRGNGIFTYDAKYRTTLPGSLWADADNQFFASYDAPAVDAHYYAGVTYDYYKNVHNRLSYDGNNAAIRSSVHYSQGYNNAFWNGSQMVYGDGDGQTFIPLSGGIDVVAHELTHAVTDYTAGLIYQNESGAINEAISDIFGTLVEFYANKNPDWEIGEDVYTPGISGDSLRSMSDPAKYGDPDHYSKRYTGTQDNGGVHINSGIINKAAYLISQGGTHYGVSVVGIGRDKLGKIFYRALTQYLTPNSNFSQLRAAAVQSATDLYGSTSQEVASVKQAFDAVGVK
B3: T278C: single-substitution thermolysin variant (SEQ ID NO:3 numbering) (protein, listed as Geobacillus caldoproteolyticus)
chain: ITGTSTVGVGRGVLGDQKNINTTYSTYYYLQDNTRGNGIFTYDAKYRTTLPGSLWADADNQFFASYDAPAVDAHYYAGVTYDYYKNVHNRLSYDGNNAAIRSSVHYSQGYNNAFWNGSQMVYGDGDGQTFIPLSGGIDVVAHELTHAVTDYTAGLIYQNESGAINEAISDIFGTLVEFYANKNPDWEIGEDVYTPGISGDSLRSMSDPAKYGDPDHYSKRYTGTQDNGGVHINSGIINKAAYLISQGGTHYGVSVVGIGRDKLGKIFYRALTQYLTPCSNFSQLRAAAVQSATDLYGSTSQEVASVKQAFDAVGVK
B4: N280E: single-substitution thermolysin variant (SEQ ID NO:3 numbering) (protein, listed as Geobacillus caldoproteolyticus)
chain: ITGTSTVGVGRGVLGDQKNINTTYSTYYYLQDNTRGNGIFTYDAKYRTTLPGSLWADADNQFFASYDAPAVDAHYYAGVTYDYYKNVHNRLSYDGNNAAIRSSVHYSQGYNNAFWNGSQMVYGDGDGQTFIPLSGGIDVVAHELTHAVTDYTAGLIYQNESGAINEAISDIFGTLVEFYANKNPDWEIGEDVYTPGISGDSLRSMSDPAKYGDPDHYSKRYTGTQDNGGVHINSGIINKAAYLISQGGTHYGVSVVGIGRDKLGKIFYRALTQYLTPTSEFSQLRAAAVQSATDLYGSTSQEVASVKQAFDAVGVK
B5: Q273W: single-substitution thermolysin variant (SEQ ID NO:3 numbering) (protein, listed as Geobacillus caldoproteolyticus)
chain: ITGTSTVGVGRGVLGDQKNINTTYSTYYYLQDNTRGNGIFTYDAKYRTTLPGSLWADADNQFFASYDAPAVDAHYYAGVTYDYYKNVHNRLSYDGNNAAIRSSVHYSQGYNNAFWNGSQMVYGDGDGQTFIPLSGGIDVVAHELTHAVTDYTAGLIYQNESGAINEAISDIFGTLVEFYANKNPDWEIGEDVYTPGISGDSLRSMSDPAKYGDPDHYSKRYTGTQDNGGVHINSGIINKAAYLISQGGTHYGVSVVGIGRDKLGKIFYRALTWYLTPTSNFSQLRAAAVQSATDLYGSTSQEVASVKQAFDAVGVK
B6: T278H: single-substitution thermolysin variant (SEQ ID NO:3 numbering) (protein, listed as Geobacillus caldoproteolyticus)
chain: ITGTSTVGVGRGVLGDQKNINTTYSTYYYLQDNTRGNGIFTYDAKYRTTLPGSLWADADNQFFASYDAPAVDAHYYAGVTYDYYKNVHNRLSYDGNNAAIRSSVHYSQGYNNAFWNGSQMVYGDGDGQTFIPLSGGIDVVAHELTHAVTDYTAGLIYQNESGAINEAISDIFGTLVEFYANKNPDWEIGEDVYTPGISGDSLRSMSDPAKYGDPDHYSKRYTGTQDNGGVHINSGIINKAAYLISQGGTHYGVSVVGIGRDKLGKIFYRALTQYLTPHSNFSQLRAAAVQSATDLYGSTSQEVASVKQAFDAVGVK
B7: T278S: single-substitution thermolysin variant (SEQ ID NO:3 numbering) (protein, listed as Geobacillus caldoproteolyticus)
chain: ITGTSTVGVGRGVLGDQKNINTTYSTYYYLQDNTRGNGIFTYDAKYRTTLPGSLWADADNQFFASYDAPAVDAHYYAGVTYDYYKNVHNRLSYDGNNAAIRSSVHYSQGYNNAFWNGSQMVYGDGDGQTFIPLSGGIDVVAHELTHAVTDYTAGLIYQNESGAINEAISDIFGTLVEFYANKNPDWEIGEDVYTPGISGDSLRSMSDPAKYGDPDHYSKRYTGTQDNGGVHINSGIINKAAYLISQGGTHYGVSVVGIGRDKLGKIFYRALTQYLTPSSNFSQLRAAAVQSATDLYGSTSQEVASVKQAFDAVGVK
B8: Q273T: single-substitution thermolysin variant (SEQ ID NO:3 numbering) (protein, listed as Geobacillus caldoproteolyticus)
chain: ITGTSTVGVGRGVLGDQKNINTTYSTYYYLQDNTRGNGIFTYDAKYRTTLPGSLWADADNQFFASYDAPAVDAHYYAGVTYDYYKNVHNRLSYDGNNAAIRSSVHYSQGYNNAFWNGSQMVYGDGDGQTFIPLSGGIDVVAHELTHAVTDYTAGLIYQNESGAINEAISDIFGTLVEFYANKNPDWEIGEDVYTPGISGDSLRSMSDPAKYGDPDHYSKRYTGTQDNGGVHINSGIINKAAYLISQGGTHYGVSVVGIGRDKLGKIFYRALTTYLTPTSNFSQLRAAAVQSATDLYGSTSQEVASVKQAFDAVGVK
B9: Q273N: single-substitution thermolysin variant (SEQ ID NO:3 numbering) (protein, listed as Geobacillus caldoproteolyticus)
chain: ITGTSTVGVGRGVLGDQKNINTTYSTYYYLQDNTRGNGIFTYDAKYRTTLPGSLWADADNQFFASYDAPAVDAHYYAGVTYDYYKNVHNRLSYDGNNAAIRSSVHYSQGYNNAFWNGSQMVYGDGDGQTFIPLSGGIDVVAHELTHAVTDYTAGLIYQNESGAINEAISDIFGTLVEFYANKNPDWEIGEDVYTPGISGDSLRSMSDPAKYGDPDHYSKRYTGTQDNGGVHINSGIINKAAYLISQGGTHYGVSVVGIGRDKLGKIFYRALTNYLTPTSNFSQLRAAAVQSATDLYGSTSQEVASVKQAFDAVGVK
B10: T278Y: single-substitution thermolysin variant (SEQ ID NO:3 numbering) (protein, listed as Geobacillus caldoproteolyticus)
chain: ITGTSTVGVGRGVLGDQKNINTTYSTYYYLQDNTRGNGIFTYDAKYRTTLPGSLWADADNQFFASYDAPAVDAHYYAGVTYDYYKNVHNRLSYDGNNAAIRSSVHYSQGYNNAFWNGSQMVYGDGDGQTFIPLSGGIDVVAHELTHAVTDYTAGLIYQNESGAINEAISDIFGTLVEFYANKNPDWEIGEDVYTPGISGDSLRSMSDPAKYGDPDHYSKRYTGTQDNGGVHINSGIINKAAYLISQGGTHYGVSVVGIGRDKLGKIFYRALTQYLTPYSNFSQLRAAAVQSATDLYGSTSQEVASVKQAFDAVGVK

Experiment: Stability assay in 25% TIDE 2X detergent with DTPA (residual Abz-AGLA-Nba protease activity)
Assay type: physicochemical
Settings: 60 min at 32°C; variant residual AGLA activity divided by wild-type residual activity
Protocol: The stability of thermolysin and variants thereof was measured after incubation under defined conditions in the presence of 25% TIDE® 2× detergent. The initial and residual activity was determined.
MTPs were obtained from Costar (type 9017) and from Greiner (black plate, type 655076). Test Method Unstressed Conditions:
First, 20 μl thermolysin containing culture supernatant was diluted with 180 μl MES assay buffer. Then, 20 μl diluted supernatant was diluted further with 180 μl MES assay buffer. Subsequently 10 μl of this dilution was transferred into 190 μl AGLA-substrate solution in a pre-warmed plate (Greiner 655076) at 25° C. Any air bubbles present were blown away and the plate was measured according to the AGLA protease assay protocol described below.
First, 20 μl of culture supernatant was diluted with 180 μl 27.5% TIDE®+detergent solution and placed in the iEMS shaker. The plate covered with a plate seal was incubated for a total of 60 minutes at 32° C. at 900 rpm. In addition, 20 μl of culture supernatant was diluted with 180 μl 27.5% TIDE®−solution and placed in the iEMS shaker. This plate covered with a plate seal was incubated for a total of 180 minutes at 50° C. at 900 rpm.
Subsequently after the respective incubations, 20 μl of either of these solutions were diluted with 180 μl MES assay buffer and 10 μl of this dilution were diluted with 190 μl AGLA-substrate solution in a pre-warmed plate (Greiner 655076) at 25° C.
Fluorescence measurements were taken at excitation of 350 nm and emission of 420 nm. The spectrofluorometer software calculated the reaction rates (=slope) of the increase in fluorescence for each well to a linearly regressed line of (milli-) RFU/min. The ratio of the residual and initial AGLA activity was used to express the 25% TIDE® 2× stability as follows: Percentage of residual activity=[slope of stressed]*100/[slope of unstressed]
For each sample (thermolysin and variants thereof) the performance index was calculated by dividing the residual activity of the variant by the residual activity of thermolysin. The performance index compared the stability of the variant and the standard thermolysin enzyme (e.g., wild type or parental enzyme), determined under the same conditions.
In these experiments, the liberation of Abz-AG by protease cleavage of Abz-AGLA-Nba was monitored by fluorescence spectrometry (Ex. 350/Em. 420). The rate of appearance of Abz-AG was a measure of proteolytic activity.
The Abz-AGLA-Nba assay solution was prepared by adding 1 ml of the Abz-AGLA-Nba stock to 19 ml MES substrate buffer and mixed well for at least 2 minutes. Subsequently the thermolysin or variants thereof containing culture supernatants were diluted with MES assay buffer to a concentration of 1-6 μg protein per ml.
The assay was performed by adding 10 μl of diluted protease solution to each well, followed by the addition of 190 μl Abz-AGLA-Nba assay solution that was pre-equilibrated for at least 15 minutes at 25° C. The solutions were vigorously mixed, and the liberation of Abz-AG by protease cleavage of Abz-AGLA-Nba was monitored by fluorescence spectrometry at 25° C. in kinetic mode with excitation set at 350 nm and emission set at 420 nm. The rate of appearance of Abz-AG was a measure of proteolytic activity in the samples. The protease activity was expressed as RFU (relative fluorescence units·min^−1).
As described in Example 1, the stability of thermolysin variants was measured by determining the AGLA activity before and after incubation in the presence of TIDE® 2× heavy duty liquid (HDL) detergent at an elevated temperature. The tables contain the relative stability values compared to wild-type thermolysin, which is the quotient of the variant residual activity divided by the wild-type residual activity. A value greater than one indicates higher stability in the presence of detergent. […]

Molecule | PI (relative stability), 25% TIDE 2X with DTPA
B1 | 1.03
B2 | 1.07
B3 | 1.05
B4 | 1.13
B5 | 1.05
B6 | 1.07
B7 | 1.08
B8 | 1.08
B9 | 1.25
B10 | 1.05
